Measured values published in patent publication US20120171723A1 (published 2012).
Values joined by “and” are separate entries in the source; they are usually repeats but may differ in a detail not shown here. Equal values may be shown once.

What was measured:
Assay in all cases: cell-based or functional assay
[1] = target: FGFR3α-IIIc expressed on transfected BAF3 cells
[2] = target: FGFR1α-IIIc expressed on transfected BAF3 cells
[3] = target: FGFR2α-IIIb expressed on transfected BAF3 cells
[4] = target: FGFR1α-IIIb expressed on transfected BAF3 cells
[5] = target: FGFR3α-IIIb expressed on transfected BAF3 cells
[6] = target: FGFR3α-IIIc expressed on transfected BAF3 cells; remark: listed apart in the source
[7] = target: FGFR2α-IIIc expressed on transfected BAF3 cells

B1: human zFGF5 (FGF homolog polypeptide) (ligand)
chain: EENVDFRIHVENQTRARDDVSRKQLRLYQLYSRTSGKHIQVLGRRISARGEDGDKYAQLLVETDTFGSQVRIKGKETEFYLCMNRKGKLVGKPDGTSKECVFIEKVLENNYTALMSAKYSGWYVGFTKKGRPRKGPKTRENQQDVHFMKRYPKGQPELQKPFKYTTVTKRSRRIRPTHPA
- EC50 of the cell proliferative response [1]: ~1 ng/mL and ~2 ng/mL
- Alamar Blue Units (proliferation of BAF3 cells expressing the receptor) at 1.6 ng/ml zFGF5 [2]: 2.6 Alamar Blue Units
- Alamar Blue Units (proliferation of BAF3 cells expressing the receptor) at 3.1 ng/ml zFGF5 [2]: 4.2 Alamar Blue Units
- Alamar Blue Units (proliferation of BAF3 cells expressing the receptor) at 6.2 ng/ml zFGF5 [2]: 14.2 Alamar Blue Units
- Alamar Blue Units (proliferation of BAF3 cells expressing the receptor) at 12.5 ng/ml zFGF5 [2]: 29.9 Alamar Blue Units
- Alamar Blue Units (proliferation of BAF3 cells expressing the receptor) at 25 ng/ml zFGF5 [2]: 86 Alamar Blue Units
- Alamar Blue Units (proliferation of BAF3 cells expressing the receptor) at 50 ng/ml zFGF5 [2]: 224 Alamar Blue Units
- Alamar Blue Units (proliferation of BAF3 cells expressing the receptor) at 100 ng/ml zFGF5 [2]: 488 Alamar Blue Units
- Alamar Blue Units (proliferation of BAF3 cells expressing the receptor) at 200 ng/ml zFGF5 [2]: 912 Alamar Blue Units
- Alamar Blue Units (proliferation of BAF3 cells expressing the receptor) at 1.6 ng/ml zFGF5 [3]: 0.2 Alamar Blue Units
- Alamar Blue Units (proliferation of BAF3 cells expressing the receptor) at 3.1 ng/ml zFGF5 [3]: 0.06 Alamar Blue Units
- Alamar Blue Units (proliferation of BAF3 cells expressing the receptor) at 6.2 ng/ml zFGF5 [3]: 0 Alamar Blue Units
- Alamar Blue Units (proliferation of BAF3 cells expressing the receptor) at 12.5 ng/ml zFGF5 [3]: 0.4 Alamar Blue Units
- Alamar Blue Units (proliferation of BAF3 cells expressing the receptor) at 25 ng/ml zFGF5 [3]: 0.2 Alamar Blue Units
- Alamar Blue Units (proliferation of BAF3 cells expressing the receptor) at 50 ng/ml zFGF5 [3]: 0.5 Alamar Blue Units
- Alamar Blue Units (proliferation of BAF3 cells expressing the receptor) at 100 ng/ml zFGF5 [3]: 1.3 Alamar Blue Units
- Alamar Blue Units (proliferation of BAF3 cells expressing the receptor) at 200 ng/ml zFGF5 [3]: 1.3 Alamar Blue Units
- Alamar Blue Units (proliferation of BAF3 cells expressing the receptor) at 1.6 ng/ml zFGF5 [4]: 0 Alamar Blue Units
- Alamar Blue Units (proliferation of BAF3 cells expressing the receptor) at 3.1 ng/ml zFGF5 [4]: 1.7 Alamar Blue Units
- Alamar Blue Units (proliferation of BAF3 cells expressing the receptor) at 6.2 ng/ml zFGF5 [4]: 1.3 Alamar Blue Units
- Alamar Blue Units (proliferation of BAF3 cells expressing the receptor) at 12.5 ng/ml zFGF5 [4]: 0 Alamar Blue Units
- Alamar Blue Units (proliferation of BAF3 cells expressing the receptor) at 25 ng/ml zFGF5 [4]: 10.9 Alamar Blue Units
- Alamar Blue Units (proliferation of BAF3 cells expressing the receptor) at 50 ng/ml zFGF5 [4]: 0 Alamar Blue Units
- Alamar Blue Units (proliferation of BAF3 cells expressing the receptor) at 100 ng/ml zFGF5 [4]: 0 Alamar Blue Units
- Alamar Blue Units (proliferation of BAF3 cells expressing the receptor) at 200 ng/ml zFGF5 [4]: 0 Alamar Blue Units
- Alamar Blue Units (proliferation of BAF3 cells expressing the receptor) at 1.6 ng/ml zFGF5 [5]: 0 Alamar Blue Units
- Alamar Blue Units (proliferation of BAF3 cells expressing the receptor) at 3.1 ng/ml zFGF5 [5]: 0 Alamar Blue Units
- Alamar Blue Units (proliferation of BAF3 cells expressing the receptor) at 6.2 ng/ml zFGF5 [5]: 0 Alamar Blue Units
- Alamar Blue Units (proliferation of BAF3 cells expressing the receptor) at 12.5 ng/ml zFGF5 [5]: 0 Alamar Blue Units
- Alamar Blue Units (proliferation of BAF3 cells expressing the receptor) at 25 ng/ml zFGF5 [5]: 1.4 Alamar Blue Units
- Alamar Blue Units (proliferation of BAF3 cells expressing the receptor) at 50 ng/ml zFGF5 [5]: 19 Alamar Blue Units
- Alamar Blue Units (proliferation of BAF3 cells expressing the receptor) at 100 ng/ml zFGF5 [5]: 189 Alamar Blue Units
- Alamar Blue Units (proliferation of BAF3 cells expressing the receptor) at 200 ng/ml zFGF5 [5]: 472 Alamar Blue Units
- Alamar Blue Units (proliferation of BAF3 cells expressing the receptor) at 1.6 ng/ml zFGF5 [6]: 1400 Alamar Blue Units
- Alamar Blue Units (proliferation of BAF3 cells expressing the receptor) at 3.1 ng/ml zFGF5 [6]: 2000 Alamar Blue Units
- Alamar Blue Units (proliferation of BAF3 cells expressing the receptor) at 6.2 ng/ml zFGF5 [6]: 2580 Alamar Blue Units
- Alamar Blue Units (proliferation of BAF3 cells expressing the receptor) at 12.5 ng/ml zFGF5 [6]: 3200 Alamar Blue Units
- Alamar Blue Units (proliferation of BAF3 cells expressing the receptor) at 25 ng/ml zFGF5 [6]: 3760 Alamar Blue Units
- Alamar Blue Units (proliferation of BAF3 cells expressing the receptor) at 50 ng/ml zFGF5 [6]: 3960 Alamar Blue Units
- Alamar Blue Units (proliferation of BAF3 cells expressing the receptor) at 100 ng/ml zFGF5 [6]: 4120 Alamar Blue Units
- Alamar Blue Units (proliferation of BAF3 cells expressing the receptor) at 200 ng/ml zFGF5 [6]: 4200 Alamar Blue Units
- Alamar Blue Units (proliferation of BAF3 cells expressing the receptor) at 1.6 ng/ml zFGF5 [7]: 241 Alamar Blue Units
- Alamar Blue Units (proliferation of BAF3 cells expressing the receptor) at 3.1 ng/ml zFGF5 [7]: 480 Alamar Blue Units
- Alamar Blue Units (proliferation of BAF3 cells expressing the receptor) at 6.2 ng/ml zFGF5 [7]: 715 Alamar Blue Units
- Alamar Blue Units (proliferation of BAF3 cells expressing the receptor) at 12.5 ng/ml zFGF5 [7]: 977 Alamar Blue Units
- Alamar Blue Units (proliferation of BAF3 cells expressing the receptor) at 25 ng/ml zFGF5 [7]: 1310 Alamar Blue Units
- Alamar Blue Units (proliferation of BAF3 cells expressing the receptor) at 50 ng/ml zFGF5 [7]: 1520 Alamar Blue Units
- Alamar Blue Units (proliferation of BAF3 cells expressing the receptor) at 100 ng/ml zFGF5 [7]: 1720 Alamar Blue Units
- Alamar Blue Units (proliferation of BAF3 cells expressing the receptor) at 200 ng/ml zFGF5 [7]: 1790 Alamar Blue Units
